# Experimental data reported in the supplement of paper PMC10567573.
# B1: CPOX (parent)
# chain: HAPTIHFNYRYFEVEEADGNKQWW
# Variants of: B1
# Test: protein stability index of a GFP-peptide fusion (GPS, HEK-293T) (PSI 1-6); higher = more stable
# Conditions: c terminus: a fixed tail appended
# 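Further: lentivirally expressed fusions sorted by FACS into six bins by GFP to DsRed ratio, PSI derived from sequencing read proportions per bin multiplied by bin number.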
row,Variant,protein stability index
1,HAPTIHFNYRYFEVEEFDGNKQWW [A17F],1.97
2,HAPTIHFNYRYFEVEEMDGNKQWW [A17M],2.27
3,HAPTIHFNYRYFEVEEKDGNKQWW [A17K],2.9
4,HAPTIHFNYRYFEVEEQDGNKQWW [A17Q],2.31
5,HAPTIHFNYRYFEVEEYDGNKQWW [A17Y],1.77
6,HAPTIHFNYRYFEVEESDGNKQWW [A17S],2.23
7,HAPTIHFNYRYFEVEELDGNKQWW [A17L],1.96
8,HAPTIHFNYRYFEVEETDGNKQWW [A17T],2.35
9,HAPTIHFNYRYFEVEERDGNKQWW [A17R],2.02
10,HAPTIHFNYRYFEVEEHDGNKQWW [A17H],1.89
11,HAPTIHFNYRYFEVEENDGNKQWW [A17N],3.19
12,HAPTIHFNYRYFEVEEPDGNKQWW [A17P],2.05
13,HAPTIHFNYRYFEVEEIDGNKQWW [A17I],1.86
14,HAPTIHFNYRYFEVEEDDGNKQWW [A17D],2.6
15,HAPTIHFNYRYFEVEEGDGNKQWW [A17G],2.57
16,HAPTIHFNYRYFEVEEVDGNKQWW [A17V],1.9
17,HAPTIHFNYRYFEVEECDGNKQWW [A17C],2.08
18,HAPTIHFNYRYFEVEEEDGNKQWW [A17E],3.01
19,HAPTIHFNYRYFEVEEADGEKQWW [N20E],2.75
20,HAPTIHFNYRYFEVEEADGIKQWW [N20I],2.34
21,HAPTIHFNYRYFEVEEADGCKQWW [N20C],1.87
22,HAPTIHFNYRYFEVEEADGWKQWW [N20W],1.88
23,HAPTIHFNYRYFEVEEADGAKQWW [N20A],1.76
24,HAPTIHFNYRYFEVEEADGSKQWW [N20S],2.08

row,Variant,protein stability index
1,HAPTIHFNYRYFEVEEADGYKQWW [N20Y],1.66
2,HAPTIHFNYRYFEVEEADGPKQWW [N20P],1.98
3,HAPTIHFNYRYFEVEEADGVKQWW [N20V],2.27
4,HAPTIHFNYRYFEVEEADGRKQWW [N20R],2.46
5,HAPTIHFNYRYFEVEEADGHKQWW [N20H],2.38
6,HAPTIHFNYRYFEVEEADGKKQWW [N20K],3.29
7,HAPTIHFNYRYFEVEEADGLKQWW [N20L],2.12
8,HAPTIHFNYRYFEVEEADGGKQWW [N20G],2.38
9,HAPTIHFNYRYFEVEEADGFKQWW [N20F],1.07
10,HAPTIHFNYRYFEVEEADGQKQWW [N20Q],2.95
11,HAPTIHFNYRYFEVEEADGTKQWW [N20T],2.85
12,HAPTIHFNYRYFEVEEADGDKQWW [N20D],2.12
13,HAPTIHFNYRYFEVEEADGMKQWW [N20M],1.32
14,HAPTIHFNYRYFEVEEADTNKQWW [G19T],2.26
15,HAPTIHFNYRYFEVEEADFNKQWW [G19F],2.46
16,HAPTIHFNYRYFEVEEADHNKQWW [G19H],1.8
17,HAPTIHFNYRYFEVEEADINKQWW [G19I],2.07
18,HAPTIHFNYRYFEVEEADCNKQWW [G19C],1.97
19,HAPTIHFNYRYFEVEEADDNKQWW [G19D],3.04
20,HAPTIHFNYRYFEVEEADVNKQWW [G19V],2.11
21,HAPTIHFNYRYFEVEEADSNKQWW [G19S],2.19
22,HAPTIHFNYRYFEVEEADKNKQWW [G19K],2.17
23,HAPTIHFNYRYFEVEEADMNKQWW [G19M],2.06
24,HAPTIHFNYRYFEVEEADANKQWW [G19A],2.33

row,Variant,protein stability index
1,HAPTIHFNYRYFEVEEADQNKQWW [G19Q],2.11
2,HAPTIHFNYRYFEVEEADLNKQWW [G19L],1.87
3,HAPTIHFNYRYFEVEEADWNKQWW [G19W],1.79
4,HAPTIHFNYRYFEVEEADRNKQWW [G19R],2.25
5,HAPTIHFNYRYFEVEEADYNKQWW [G19Y],3.23
6,HAPTIHFNYRYFEVEEADENKQWW [G19E],2.48
7,HAPTIHFNYRYFEVEEADPNKQWW [G19P],2.04
8,HAPTIHFNYRYFEVEEADNNKQWW [G19N],2.22
9,HAPTIHFNYRYFEVEYADGNKQWW [E16Y],1.37
10,HAPTIHFNYRYFEVETADGNKQWW [E16T],2.53
11,HAPTIHFNYRYFEVERADGNKQWW [E16R],1.91
12,HAPTIHFNYRYFEVESADGNKQWW [E16S],2.24
13,HAPTIHFNYRYFEVEEADGNFQWW [K21F],1.6
14,HAPTIHFNYRYFEVEEADGNEQWW [K21E],2.53
15,HAPTIHFNYRYFEVEEADGNDQWW [K21D],2.52
16,HAPTIHFNYRYFEVEEADGNHQWW [K21H],2.6
17,HAPTIHFNYRYFEVEEADGNCQWW [K21C],2.45
18,HAPTIHFNYRYFEVEEADGNAQWW [K21A],2.44
19,HAPTIHFNYRYFEVEEADGNGQWW [K21G],2.44
20,HAPTIHFNYRYFEVEEADGNIQWW [K21I],2.25
21,HAPTIHFNYRYFEVEEADGNLQWW [K21L],1.74
22,HAPTIHFNYRYFEVEEADGNMQWW [K21M],1.54
23,HAPTIHFNYRYFEVEEADGNRQWW [K21R],2.43
24,HAPTIHFNYRYFEVEEADGNTQWW [K21T],1.53

row,Variant,protein stability index
1,HAPTIHFNYRYFEVEEADGNNQWW [K21N],2.22
2,HAPTIHFNYRYFEVEEADGNSQWW [K21S],1.99
3,HAPTIHFNYRYFEVEEADGNPQWW [K21P],2.25
4,HAPTIHFNYRYFEVEEADGNQQWW [K21Q],2.67
5,HAPTIHFNYRYFEVEEAKGNKQWW [D18K],2.16
6,HAPTIHFNYRYFEVEEAQGNKQWW [D18Q],3.07
7,HAPTIHFNYRYFEVEEAYGNKQWW [D18Y],1.07
8,HAPTIHFNYRYFEVEEATGNKQWW [D18T],1.89
9,HAPTIHFNYRYFEVEEAFGNKQWW [D18F],3.24
10,HAPTIHFNYRYFEVEEASGNKQWW [D18S],2
11,HAPTIHFNYRYFEVEEAAGNKQWW [D18A],2.6
12,HAPTIHFNYRYFEVEEAGGNKQWW [D18G],2.45
13,HAPTIHFNYRYFEVEEANGNKQWW [D18N],2.32
14,HAPTIHFNYRYFEVEEACGNKQWW [D18C],1.61
15,HAPTIHFNYRYFEVEEAMGNKQWW [D18M],1.7
16,HAPTIHFNYRYFEVEEAVGNKQWW [D18V],1.68
17,HAPTIHFNYRYFEVEEAIGNKQWW [D18I],1.5
18,HAPTIHFNYRYFEVEEAPGNKQWW [D18P],1.71
19,HAPTIHFNYRYFEVEEAHGNKQWW [D18H],2.86
20,HAPTIHFNYRYFEVEEAEGNKQWW [D18E],2.63
21,HAPTIHFNYRYFEVEEALGNKQWW [D18L],1.3
22,HAPTIHFNYRYFEVEEARGNKQWW [D18R],2.18
